Each block holds one molecule with its values, some of them ahead of it.
Experiments:
[1] = molecular target: HIS-tagged integrin αvβ5 (ACRO Biosystems IT5-H52W5) (UniProt P06756); assay: radioligand binding; 125I-labeled NP-011 (0–100 μg/mL) incubated in plates coated with HIS-tagged integrin; 50 mM Tris, 5 mM MgCl2, 100 mM NaCl, 1% BSA, pH 7.4; Kd by nonlinear curve fitting (Prism); done by Gifford Bioscience
[2] = molecular target: HIS-tagged integrin αvβ3 (ACRO Biosystems IT3-H52E3) (UniProt P06756); assay: as above
[3] = molecular target: HIS-tagged integrin αvβ5 (ACRO Biosystems IT5-H52W5) (UniProt P06756); assay: radioligand binding; binding affinity assay of MFG-E8 to integrin αVβ5 (Supplementary Figure S2); told with the radioligand binding assays, its own methods not shown

Kd [1]: 2 nM
Kd [2]: 50.4 nM
Molecule: NP-011 (truncated form of MFG-E8, EGF + C1 domain) (from UniProt Q08431 24-387) (domain or fragment)

Kd [3]: 25.4 nM
B1: Milk fat globule-EGF factor 8 (MFG-E8) (natural protein)
chain: LDICSKNPCHNGGLCEEISQEVRGDVFPSYTCTCLKGYAGNHCETKCVEPLGLENGNIANSQIAASSVRVTFLGLQHWVPELARLNRAGMVNAWTPSSNDDNPWIQVNLLRRMWVTGVVTQGASRLASHEYLKAFKVAYSLNGHEFDFIHDVNKKHKEFVGNWNKNAVHVNLFETPVEAQYVRLYPTSCHTACTLRFELLGCELNGCANPLGLKNNSIPDKQITASSSYKTWGLHLFSWNPSYARLDKQGNFNAWVAGSYGNDQWLQVDLGSSKEVTGIITQGARNFGSVQFVASYKVAYSNDSANWTEYQDPRTGSSKIFPGNWDNHSHKKNLFETPILARYVRILPVAWHNRIALRLELLGC
